Legend:
[1] = biological target: GTPγS·GST-H-Ras (Homo sapiens (Human), UniProt P01112); test: GST-small G-protein glutathione-Sepharose affinity column
[2] = biological target: GTPγS·GST-Rac1 (Homo sapiens (Human), UniProt P63000); test: as above
[3] = biological target: GST (Schistosoma japonicum (Blood fluke), UniProt P08515 = GST); test: GST-small G-protein glutathione-Sepharose affinity column, SDS-PAGE and silver staining
Method: The GST-small G-proteins (24 nmol each) were immobilized on 1 ml glutathione-Sepharose column 4B and loaded on the column.
The proteins of the bovine brain membrane extract were eluted through a 1 ml glutathione-Sepharose column. The pass-through fraction was loaded onto a glutathione-Sepharose column containing 24 nmol of GST, GDP•GST-RhoA or GTPγS•GST-RhoA. […] The proteins bound to the glutathione-Sepharose column were eluted by addition of 10 ml Buffer A containing glutathione or 1% 3-[(3-cholamidopropyl) dimethylammonio] propanesulfonic acid (CHAPS), and fractions of 1 ml each were collected.

B1: bovine Rho-kinase (enzyme)
chain: MSRPPPTGKMPGAPEAVSGDGAGASRQRKLEALIRDPRSPINVESLLDGLNPLVLDLDFPALRKNKNIDNFLNRYEKIVKKIRGLQMKAEDYDVVKVIGRGAFGEVQLVRHKASQKVYAMKLLSKFEMIKRSDSAFFWEERDIMAFANSPWVVQLFCAFQDDKYLYMVMEYMPGGDLVNLMSNYDVPEKWAKFYTAEVVLALDAIHSMGLIHRDVKPDNMLLDKHGHLKLADFGTCMKMDETGMVHCDTAVGTPDYISPEVLKSQGGDGYYGRECDWWSVGVFLFEMLVGDTPFYADSLVGTYSKIMDHKNSLCFPEDAEISKHAKNLICAFLTDREVRLGRNGVEEIKQHPFFKNDQWNWDNIRETAAPVVPELSSDIDSSNFDDIEDDKGDVETFPIPKAFVGNQLPFIGFTYYRENLLLSDSPSCKENDSIQSRKNEESQEIQKKLYTLEEHLSTEIQAKEELEQKCKSVNTRLEKVAKELEEEITLRKNVESTLRQLEREKALLQHKNAEYQRKADHEADKKRNLENDVNSLKDQLEDLKKRNQNSQISTEKVNQLQRQLDETNALLRTESDTAARLRKTQAESSKQIQQLESNNRDLQDKNCLLETAKLKLEKEFINLQSVLESERRDRTHGSEIINDLQGRISGLEEDVKNGKILLAKVELEKRQLQERFTDLEKEKNNMEIDMTYQLKVIQQSLEQEETEHKATKARLADKNKIYESIEEAKSEAMKEMEKKLSEERTLKQKVENLLLEAEKRCSILDCDLKQSQQKINELLKQKDVLNEDVRNLTLKIEQETQKRCLTQNDLKMQTQQVNTLKMSEKQLKQENNHLLEMKMSLEKQNAELRKERQDADGQMKELQDQLEAEQYFSTLYKTQVRELKEECEEKTKLCKELQQKKQELQDERDSLAAQLEITLTKADSEQLARSIAEEQYSDLEKEKIMKELEIKEMMARHKQELTEKDATIASLEETNRTLTSDVANLANEKEELNNKLKEAQEQLSRLKDEEISAAAIKAQFEKQLLTERTLKTQAVNKLAEIMNRKEPVKRGNDTDVRRKEKENRKLHMELKSEREKLTQQMIKYQKELNEMQAQIAEESQIRIELQMTLDSKDSDIEQLRSQLQALHIGLDSSSIGSGPGDTEADDGFPESRLEGWLSLPVRNNTKKFGWVKKYVIVSSKKILFYDSEQDKEQSNPYMVLDIDKLFHVRPVTQTDVYRADAKEIPRIFQILYANEGESKKEQEFPVEPVGEKSNYICHKGHEFIPTLYHFPTNCEACMKPLWHMFKPPPALECRRCHIKCHKDHMDKKEEIIAPCKVYYDISSAKNLLLLANSTEEQQKWVSRLVKKIPKKPPAPDPFARSSPRTSMKIQQNQSIRRPSRQLAPNKPS
binding result [1]: no binding | binding result [2]: no binding | binding result [3]: no binding (tested: 24 nmol on the column)
